Experimental data published in publication PMC6380570.

Assays:
[1] = target: S100A1 protein (1-93 amino acids)
[2] = target: S100A1 protein (1-93 amino acids); test: other fluorescence titration; tryptophan fluorescence of S100A1 (3.50 uM; excitation 295 nm, emission 344 nm); S100A4 added from 0 to 10.50 uM in steps of about 0.70 uM; 0.1 mM EDTA, 8 mM NaCl, 0.34 mM NaN3, 6 mM CaCl2, 16 mM Tris, pH 6.0; linear (double-reciprocal) fit

In the case of “S100A4 (Mts1) protein (from UniProt P26447 4-101) (natural protein)”, the WST-1 proliferation assay of SW480 cells (which contain RAGE) treated with the S100A4-S100A1 complex (100 nM), against S100A1 alone; pair said to be blocked: S100A1 and the RAGE V domain [1] is reported as 1.38 fold and the Kd [2] is reported as 6.2 µM.
